Reference: paper PMC11770177, “Skeletal progenitor LRP1 deficiency causes severe and persistent skeletal defects with Wnt pathway dysregulation” (Bone Research, 2025)
Each block holds one binder with its values, some of them ahead of it.

Molecular target: T1, low-density lipoprotein (LDL) receptor-related protein 1 (LRP1), purified human full-length (human, UniProt Q07954 20-4544)
T1 construct: LRP1, human, purified full-length protein coated onto microtiter plates; also called full-length LRP1; Full-length sLRP1; source: purified
Test: ELISA; solid-phase binding assay; human full-length LRP1 (10 nmol/L) coated overnight at 4 °C onto microtiter plates in 50 mmol/L Tris-HCl (pH 7.5)/150 mmol/L NaCl/10 mmol/L CaCl2; 0-200 nmol/L Wnt in 5% BSA blocking solution, 30 min at RT; bound Wnt detected with a specific antibody; signal of wells without LRP1 subtracted; apparent KD (K_D,app), extrapolated from a one-phase decay nonlinear fit
Settings: both partners purified

T1 sequence (Q07954 20-4544): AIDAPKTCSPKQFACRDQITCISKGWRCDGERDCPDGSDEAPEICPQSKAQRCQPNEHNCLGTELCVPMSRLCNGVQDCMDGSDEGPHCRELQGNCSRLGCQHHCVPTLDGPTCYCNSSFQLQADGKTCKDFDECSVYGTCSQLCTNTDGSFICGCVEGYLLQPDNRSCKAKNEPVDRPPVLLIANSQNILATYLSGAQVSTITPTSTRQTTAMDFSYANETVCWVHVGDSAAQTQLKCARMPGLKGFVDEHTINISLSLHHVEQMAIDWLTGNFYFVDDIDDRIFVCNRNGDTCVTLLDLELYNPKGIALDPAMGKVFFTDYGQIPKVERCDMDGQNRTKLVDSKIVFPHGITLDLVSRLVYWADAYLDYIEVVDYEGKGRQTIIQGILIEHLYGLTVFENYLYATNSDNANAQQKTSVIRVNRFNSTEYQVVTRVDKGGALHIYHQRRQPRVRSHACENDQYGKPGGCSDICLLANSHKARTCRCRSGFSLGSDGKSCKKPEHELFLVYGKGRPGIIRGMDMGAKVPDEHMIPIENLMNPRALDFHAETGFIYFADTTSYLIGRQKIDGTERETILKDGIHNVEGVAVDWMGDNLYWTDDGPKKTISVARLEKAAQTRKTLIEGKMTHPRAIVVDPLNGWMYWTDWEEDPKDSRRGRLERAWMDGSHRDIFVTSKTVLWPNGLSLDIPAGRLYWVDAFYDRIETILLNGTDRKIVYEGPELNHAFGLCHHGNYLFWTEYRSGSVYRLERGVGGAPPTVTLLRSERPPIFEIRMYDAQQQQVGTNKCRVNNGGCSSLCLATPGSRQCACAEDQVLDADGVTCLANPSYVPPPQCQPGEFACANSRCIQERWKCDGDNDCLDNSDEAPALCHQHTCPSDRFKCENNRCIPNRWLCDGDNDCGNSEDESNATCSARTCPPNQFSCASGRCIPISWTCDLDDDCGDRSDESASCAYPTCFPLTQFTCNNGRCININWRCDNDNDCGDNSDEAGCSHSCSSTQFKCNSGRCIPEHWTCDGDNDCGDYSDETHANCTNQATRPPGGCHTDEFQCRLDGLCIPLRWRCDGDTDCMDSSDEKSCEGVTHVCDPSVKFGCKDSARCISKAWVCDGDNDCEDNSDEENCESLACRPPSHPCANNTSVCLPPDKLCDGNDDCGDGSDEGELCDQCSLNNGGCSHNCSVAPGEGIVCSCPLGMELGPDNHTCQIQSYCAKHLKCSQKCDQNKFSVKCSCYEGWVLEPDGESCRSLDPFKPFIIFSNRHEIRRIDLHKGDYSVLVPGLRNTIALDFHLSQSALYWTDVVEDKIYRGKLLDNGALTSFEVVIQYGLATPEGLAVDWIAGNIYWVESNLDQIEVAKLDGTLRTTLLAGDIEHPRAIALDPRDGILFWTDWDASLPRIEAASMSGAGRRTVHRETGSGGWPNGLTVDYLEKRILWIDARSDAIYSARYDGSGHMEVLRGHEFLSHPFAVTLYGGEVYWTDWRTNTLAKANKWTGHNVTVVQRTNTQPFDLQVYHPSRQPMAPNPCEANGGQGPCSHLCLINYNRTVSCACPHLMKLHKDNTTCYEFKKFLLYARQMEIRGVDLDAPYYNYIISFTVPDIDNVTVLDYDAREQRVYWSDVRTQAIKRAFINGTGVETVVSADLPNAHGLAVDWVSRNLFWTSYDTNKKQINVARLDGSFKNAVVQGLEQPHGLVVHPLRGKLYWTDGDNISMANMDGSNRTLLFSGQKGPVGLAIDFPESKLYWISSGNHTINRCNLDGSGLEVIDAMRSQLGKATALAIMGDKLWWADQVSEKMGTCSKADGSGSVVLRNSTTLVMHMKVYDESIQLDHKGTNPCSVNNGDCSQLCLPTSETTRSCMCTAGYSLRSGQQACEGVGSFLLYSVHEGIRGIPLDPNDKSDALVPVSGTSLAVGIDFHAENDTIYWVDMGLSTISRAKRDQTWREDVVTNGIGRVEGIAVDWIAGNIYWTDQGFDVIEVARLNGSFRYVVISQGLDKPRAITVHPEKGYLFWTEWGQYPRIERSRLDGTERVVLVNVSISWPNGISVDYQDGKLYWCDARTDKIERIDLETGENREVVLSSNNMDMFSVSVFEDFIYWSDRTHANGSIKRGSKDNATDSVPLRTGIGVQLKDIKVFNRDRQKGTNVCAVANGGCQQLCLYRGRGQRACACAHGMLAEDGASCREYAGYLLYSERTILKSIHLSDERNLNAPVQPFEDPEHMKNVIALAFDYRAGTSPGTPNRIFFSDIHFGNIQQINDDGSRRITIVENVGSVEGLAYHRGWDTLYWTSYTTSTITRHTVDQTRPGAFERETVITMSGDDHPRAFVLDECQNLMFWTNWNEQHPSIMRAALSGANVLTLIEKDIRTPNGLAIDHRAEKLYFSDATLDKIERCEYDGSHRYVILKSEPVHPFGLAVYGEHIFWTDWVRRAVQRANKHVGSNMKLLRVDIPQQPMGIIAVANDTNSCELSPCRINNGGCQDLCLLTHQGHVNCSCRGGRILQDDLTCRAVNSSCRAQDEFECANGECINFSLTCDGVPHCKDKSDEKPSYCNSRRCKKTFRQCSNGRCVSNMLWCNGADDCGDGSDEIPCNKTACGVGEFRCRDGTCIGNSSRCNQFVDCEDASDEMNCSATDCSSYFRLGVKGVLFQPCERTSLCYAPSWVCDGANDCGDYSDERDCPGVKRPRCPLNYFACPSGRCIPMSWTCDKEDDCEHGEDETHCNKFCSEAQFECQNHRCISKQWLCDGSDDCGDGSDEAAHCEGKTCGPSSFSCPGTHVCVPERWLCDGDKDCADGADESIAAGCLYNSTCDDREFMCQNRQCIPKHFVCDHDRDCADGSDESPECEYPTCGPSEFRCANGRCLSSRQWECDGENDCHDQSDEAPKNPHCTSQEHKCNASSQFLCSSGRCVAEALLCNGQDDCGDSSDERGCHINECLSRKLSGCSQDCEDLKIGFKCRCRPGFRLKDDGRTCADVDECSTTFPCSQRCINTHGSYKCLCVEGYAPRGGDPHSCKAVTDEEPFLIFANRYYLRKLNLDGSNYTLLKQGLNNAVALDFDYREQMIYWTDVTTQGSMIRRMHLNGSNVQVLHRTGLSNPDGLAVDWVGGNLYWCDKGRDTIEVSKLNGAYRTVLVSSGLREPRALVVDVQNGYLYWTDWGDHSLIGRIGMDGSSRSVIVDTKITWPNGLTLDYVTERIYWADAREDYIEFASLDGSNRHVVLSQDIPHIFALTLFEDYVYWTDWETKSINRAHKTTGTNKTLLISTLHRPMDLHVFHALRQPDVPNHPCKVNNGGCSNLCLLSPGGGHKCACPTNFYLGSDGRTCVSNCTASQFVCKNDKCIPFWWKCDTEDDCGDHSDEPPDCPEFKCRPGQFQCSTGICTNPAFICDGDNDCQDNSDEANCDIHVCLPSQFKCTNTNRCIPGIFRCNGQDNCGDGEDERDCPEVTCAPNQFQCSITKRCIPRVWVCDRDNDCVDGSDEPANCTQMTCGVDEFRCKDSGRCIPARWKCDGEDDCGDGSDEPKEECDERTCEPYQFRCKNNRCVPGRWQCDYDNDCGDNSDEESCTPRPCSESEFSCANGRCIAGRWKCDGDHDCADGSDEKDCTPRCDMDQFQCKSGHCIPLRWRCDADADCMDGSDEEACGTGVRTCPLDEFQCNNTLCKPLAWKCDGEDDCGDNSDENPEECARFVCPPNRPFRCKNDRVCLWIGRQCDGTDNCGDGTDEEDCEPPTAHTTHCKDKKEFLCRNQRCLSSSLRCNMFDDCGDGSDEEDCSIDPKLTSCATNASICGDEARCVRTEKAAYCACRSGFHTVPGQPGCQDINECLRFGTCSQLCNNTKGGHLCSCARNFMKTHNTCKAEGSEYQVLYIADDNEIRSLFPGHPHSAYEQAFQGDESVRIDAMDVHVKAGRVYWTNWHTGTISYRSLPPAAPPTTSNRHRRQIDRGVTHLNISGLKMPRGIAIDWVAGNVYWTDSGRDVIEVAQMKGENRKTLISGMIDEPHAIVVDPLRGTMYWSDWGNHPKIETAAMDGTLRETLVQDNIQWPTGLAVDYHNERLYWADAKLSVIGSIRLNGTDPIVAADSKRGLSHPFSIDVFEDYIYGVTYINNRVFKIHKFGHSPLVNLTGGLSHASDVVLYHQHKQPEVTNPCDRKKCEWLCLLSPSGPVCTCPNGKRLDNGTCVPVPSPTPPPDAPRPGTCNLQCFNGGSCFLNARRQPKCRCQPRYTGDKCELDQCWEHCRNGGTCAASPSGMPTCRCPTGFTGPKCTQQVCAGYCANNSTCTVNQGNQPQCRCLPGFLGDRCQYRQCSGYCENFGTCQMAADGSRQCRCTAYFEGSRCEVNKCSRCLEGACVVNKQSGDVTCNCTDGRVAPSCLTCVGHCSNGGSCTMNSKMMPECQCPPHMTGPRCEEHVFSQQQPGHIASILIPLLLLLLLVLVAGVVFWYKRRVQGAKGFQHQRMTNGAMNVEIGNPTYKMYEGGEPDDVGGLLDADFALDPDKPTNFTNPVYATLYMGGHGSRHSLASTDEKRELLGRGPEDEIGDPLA

Kd: 42 nM
B1: Wnt11 (ligand, UniProt O96014 25-354, looked up)
chain: IKWLALSKTPSALALNQTQHCKQLEGLVSAQVQLCRSNLELMHTVVHAAREVMKACRRAFADMRWNCSSIELAPNYLLDLERGTRESAFVYALSAAAISHAIARACTSGDLPGCSCGPVPGEPPGPGNRWGGCADNLSYGLLMGAKFSDAPMKVKKTGSQANKLMRLHNSEVGRQALRASLEMKCKCHGVSGSCSIRTCWKGLQELQDVAADLKTRYLSATKVVHRPMGTRKHLVPKDLDIRPVKDSELVYLQSSPDFCMKNEKVGSHGTQDRQCNKTSNGSDSCDLMCCGRGYNPYTDRVVERCHCKYHWCCYVTCRRCERTVERYVCK
notes: Wnt11, purified protein; also called purified Wnt11; source: purified

Kd: > 200 nM
B2: Wnt3a (ligand, UniProt P56704 19-352, looked up)
chain: SYPIWWSLAVGPQYSSLGSQPILCASIPGLVPKQLRFCRNYVEIMPSVAEGIKIGIQECQHQFRGRRWNCTTVHDSLAIFGPVLDKATRESAFVHAIASAGVAFAVTRSCAEGTAAICGCSSRHQGSPGKGWKWGGCSEDIEFGGMVSREFADARENRPDARSAMNRHNNEAGRQAIASHMHLKCKCHGLSGSCEVKTCWWSQPDFRAIGDFLKDKYDSASEMVVEKHRESRGWVETLRPRYTYFKVPTERDLVYYEASPNFCEPNPETGSFGTRDRTCNVSSHGIDGCDLLCCGRGHNARAERRREKCRCVFHWCCYVSCQECTRVYDVHTCK
notes: Wnt3a, purified protein; also called purified Wnt3a; source: purified

Kd: 31 nM
B3: Wnt5a (ligand, UniProt P41221 62-380, looked up)
chain: IIGAQPLCSQLAGLSQGQKKLCHLYQDHMQYIGEGAKTGIKECQYQFRHRRWNCSTVDNTSVFGRVMQIGSRETAFTYAVSAAGVVNAMSRACREGELSTCGCSRAARPKDLPRDWLWGGCGDNIDYGYRFAKEFVDARERERIHAKGSYESARILMNLHNNEAGRRTVYNLADVACKCHGVSGSCSLKTCWLQLADFRKVGDALKEKYDSAAAMRLNSRGKLVQVNSRFNSPTTQDLVYIDPSPDYCVRNESTGSLGTQGRLCNKTSEGMDGCELMCCGRGYDQFKTVQTERCHCKFHWCCYVKCKKCTEIVDQFVCK
notes: Wnt5a, purified protein; also called purified Wnt5a; source: purified
